The values that follow come from US20250355001A1 (GTINVENT, published 2025).

Where two headings read alike, the source gives them in different places.

Test [1] addresses T1, full length human tau protein 2N4R (hT40) (human, UniProt P10636 1-758).
T1 construct: recombinant; also called T441
Put plainly: SPR, scAb captured, tau analyte. How it is done:
(§1) The capture antibody was diluted 1/100 in 10 mM Sodium acetate buffer pH 5.0 and passed over the activated chip surface for a period of at least 420 s. Final ligand immobilisation levels over 12,000 RU were deemed to be satisfactory.
(§2) The scAb to be tested was added only to flow cell 2 so that flow cell 1 could act as a control to subtract any interaction with the analyte and the chip surface. […] The multi-cycle protocol was as follows-Three start-up cycles composed of an initial capture, to the desired level, of the scAb to be tested was performed followed by a 30 s injection of glycine buffer pH 2.0 after each cycle to regenerate the chip surface. […] The target was added for a 120 s association period and 420 s dissociation period followed by another regeneration, 30 s injection of glycine buffer pH 2.0 in between each cycle.
(§3) The single cycle kinetics protocol was similar and utilised the same level of scAb capture. […] In single cycle kinetics the regeneration step was performed only after the final analyte concentration was added. Binding responses were analysed in Biacore X100 evaluation software and data fitted to a 1:1 binding model to obtain kinetic and affinity characterisation.
Target sequence in this assay (P10636 other isoform, or with tags, fused parts or gaps limits assumed): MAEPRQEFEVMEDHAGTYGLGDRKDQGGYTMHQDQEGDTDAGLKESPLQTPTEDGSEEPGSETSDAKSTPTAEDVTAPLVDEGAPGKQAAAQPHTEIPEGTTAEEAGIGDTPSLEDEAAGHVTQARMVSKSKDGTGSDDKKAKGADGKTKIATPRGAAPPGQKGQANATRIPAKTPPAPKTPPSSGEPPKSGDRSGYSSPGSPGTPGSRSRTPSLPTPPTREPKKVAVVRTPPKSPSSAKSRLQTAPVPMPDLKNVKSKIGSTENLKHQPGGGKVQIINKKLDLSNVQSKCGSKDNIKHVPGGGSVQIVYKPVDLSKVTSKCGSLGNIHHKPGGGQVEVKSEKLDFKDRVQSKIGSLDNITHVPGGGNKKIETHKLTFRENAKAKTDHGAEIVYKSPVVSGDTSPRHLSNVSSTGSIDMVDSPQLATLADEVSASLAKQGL

For another test, the target named is T2, tau fragment 1-49 (human).
T2 construct: also called Tau 1-49
T2 peptide: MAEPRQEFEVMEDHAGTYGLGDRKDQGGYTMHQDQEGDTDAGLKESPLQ
Put plainly: direct ELISA. As to the method:
(§4) A series of binding ELISA was performed using various truncated versions of the tau protein and 13mer peptide libraries spanning the entire hT40 molecule for mapping the epitopes of anti-tau scAbs (Full list of protein antigens used is given in Table 14). In general, ELISA plates were coated with 1 μg/ml hT40 or dGA or dGAE or other truncated versions of the protein and in the case of biotinylated peptides, plates were coated with 5 μg/ml Streptavidin followed by 1 μg/ml biotinylated peptide. The plates were blocked with 2% MPBS and scAb samples added at desired starting concentrations and double diluted across the plate. Binding was detected using anti-Human C Kappa HRP conjugated secondary antibody and the resulting immunoreaction was developed and absorbance values measured as described above.

The target of test [2] is T3, biotinylated tau peptide 412-441 (N-terminal biotin).
T3 peptide: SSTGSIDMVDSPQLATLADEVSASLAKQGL
In words: ELISA on biotinylated 412-441 peptide. How it is done:
as §4

The target in test [3] is T1, full length human tau protein 2N4R …. Put plainly: sandwich ELISA, S1D12 mAb capture, scAb detection. As to the method:
Full length tau (hT40), at 1 μg/ml starting concentration was added to designated wells and double diluted across rest of the plates and left to incubate at R/T for 1 h. A series of detection scAbs with varying epitope recognition properties were added at 10 μg/ml to designated wells (FIG. 22). For colourimetric detection HRP conjugated anti-HuCk secondary antibody was used and the resulting immunoreaction was developed and absorbance at 450 nm measured as described previously. Cut-off point for a positive binding event was an absorbance value of 0.3 following background subtraction. In order to enhance the assay sensitivity, a chemiluminescent detection method was adopted where 50 μL SuperSignal ELISA Femto Substrate (Thermo Scientific) was added to each well following incubation with anti-HuCK HRP antibody and subsequent washing. The luminescence was read using Clariostar Plus microplate reader. A further modification to this protocol was done where various detection scAbs were directly conjugated with HRP and detected using chemiluminescent protocol as before.
Target sequence in this assay (P10636 other isoform, or with tags, fused parts or gaps limits assumed): as the sequence (P10636 other isoform, or with tags, fused parts or gaps limits assumed) above

For test [4] the target is unchanged. Put plainly: SPR, summary table. How it is done:
as §1, §2, §3
Target sequence in this assay (P10636 other isoform, or with tags, fused parts or gaps limits assumed): as the sequence (P10636 other isoform, or with tags, fused parts or gaps limits assumed) above

For test [5] the target is unchanged. Put plainly: hT40 ELISA.
Target sequence in this assay (P10636 other isoform, or with tags, fused parts or gaps limits assumed): as the sequence (P10636 other isoform, or with tags, fused parts or gaps limits assumed) above
The target is the same in test [6]. In words: Biacore. How it is done: as §1, §2, §3
Target sequence in this assay (P10636 other isoform, or with tags, fused parts or gaps limits assumed): as the sequence (P10636 other isoform, or with tags, fused parts or gaps limits assumed) above
Test [7] has the same target. Put plainly: hT40 ELISA. As to the method:
as §4
This is another data set of the same source.

The next test addresses T4, dGAE (tau 297-391) (human, UniProt P10636 614-708).
T4 construct: monomer; also called dGAE95
Put plainly: SPR, scAb captured, tau analyte. As to the method: as §1, §2, §3

For test [8], the target named is T1, full length human tau protein 2N4R …. Put plainly: direct ELISA. How it is done:
as §4

A further test deals with dGA (tau 297-390) (human, UniProt P10636 614-707). In words: direct ELISA. How it is done: as §4
In test [9] the target is T5, aggregated dGAE (human, UniProt P10636 614-708, limits assumed).
T5 construct: dGAE aggregated in vitro with DTT, 700 rpm, 37 C, 24 h; also called dGAE aggregates; dGAE agg
Put plainly: sandwich ELISA, S1D12 mAb capture, SDS + Triton treated dGAE aggregates. How it is done:
For aggregation, 1000 μL 100 μM dGAE+10 μL 10 mM DTT was added to a ‘LoBind’ microfuge tubes and agitated at 700 RPM/37° C. for 24 hours. Resulting sample centrifuged at 17,000×g/4° C. for 60 min and supernatant discarded to remove left over monomer. Pellet resuspended in half the original volume for future experiments and hereafter referred to as ‘aggregates’. 1 μl of aggregates was added to 1 ml of PBS and SDS was added to a final concentration of 1% (w/v). This was left to incubate on lab bench for 1 h with gentle agitation every 15 minutes. In order to neutralize the SDS effect on ELISA, Triton X-100 added to a final concentration of 3% (v/v) and mixed gently by pipetting to prevent any bubble formation. […] Similarly aggregates treated with only SDS or Triton X-100, untreated aggregates, dGAE monomers treated with only SDS or SDS+Titon X-100 were also added to designated wells as controls. All samples were then double diluted across the plate in final volumes of 100 μl. The final column was left with no protein to act as a blank.

Test [10] addresses T1, full length human tau protein 2N4R …. Put plainly: hT40 ELISA. The source holds these as a separate data set.
Target sequence in this assay (P10636 other isoform, or with tags, fused parts or gaps limits assumed): as the sequence (P10636 other isoform, or with tags, fused parts or gaps limits assumed) above
In test [11] the target is T5, aggregated dGAE. In words: ELISA, direct immobilisation, SDS + Triton treated dGAE aggregates.
A further test has as its target tau fragment 1-155 (human, UniProt P10636 1-472). Put plainly: direct ELISA. How it is done:
as §4

T4 sequence (P10636 614-708 limits assumed): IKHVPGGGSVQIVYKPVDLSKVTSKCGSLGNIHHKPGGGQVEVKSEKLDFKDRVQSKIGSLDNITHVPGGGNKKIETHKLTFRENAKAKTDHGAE
T5 sequence (P10636 614-708 limits assumed): as above
Chain of dGA (tau 297-390) (P10636 614-707 limits assumed): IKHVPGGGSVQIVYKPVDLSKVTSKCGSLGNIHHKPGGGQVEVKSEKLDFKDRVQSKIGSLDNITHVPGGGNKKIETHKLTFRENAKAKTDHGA

B1: 3aH6 scAb (scFv, not shown: small tags and cut ends)
scFv: QVQLQESGPSLVKPSQTLSLTCTVSGFSLSSNGVGWVRQAPGKVPEWLGDISSVGKKYANPALKSRLSFTRDTSKSQVSLSLSSVTTEDTAVYYCVKCRDGGVTYGYDIDYWGPGLLVTASSEGKSSGASGESKVDDQAVVTQPSSVSGSLGQSVSITCSGSSGNVGYGDYVSWFQQFHGSAPKLLIYGATNLASGVPARFSGSRSGNTATLTISSLHAEDEADYYCASYDSSSGGVFGSGTRLTVLG
notes: scAb
As for B1, in [1], binding was put at a Kd of 3.6 nM, the off-rate constant (koff) is 0.00987 s⁻¹ and the kon is 2.76e+06 M⁻¹ s⁻¹. The binding result with tau fragment 1-49 is listed as “binds”.

B2: 3bG4 scAb (scFv, not shown: small tags and cut ends)
scFv: QVQLQESGPSLVKPSQTLSLTCTISGFSLISNGVGWVRQAPGKVPEWVGDIASSGKAYSNPALKSRLSITRDTSKSQVSLSLRSVTTEDTAVYYCVRCRDGGVTYGYDIDYWGPGLLVTVSSEGKSSGASGESKVDDQAVLTQPSSVSKSLGQSVSITCSGSTSNVGSGNDVSWFQQVPGSAPKLLFYGATNRASGVPDRFSGSRSGNTATLTITSLQAEDEADYYCGSYDSNSGGIFGSGTRLTVLG
notes: scAb
In the case of B2, in [1], binding was characterised by a dissociation constant (Kd) of 8.9 nM, the koff was found to be 0.0597 s⁻¹ and the kon turned out to be 6.67e+06 M⁻¹ s⁻¹. For the same molecule, in the test with tau fragment 1-49, the binding result is recorded as “binds”.

B3: 412E10 scAb (scFv, not shown: small tags and cut ends)
scFv: QVQLQESGPSLVKPSQTLSLTCTVSGFSVISDSVAWVRQAPGKVPEWLGASGSSGNKYYNPALKSRLSITRDTSKSQVSLSLSSVTTEDTAVYYCARGIIAGVDVWGRGLLVTVSSEGKSSGASGESKVDDQAVLTQPSSVSGSLGQRVSITCSGSSSNVGYGNYVGWYQQVPGSAPKLLIYGTAIRASGVPDRFSGSRSGDTATLTITSLQAEDEADYYCASYQSNYAFFGSGTRLTVLG
notes: scAb
With B3, the Kd came to 3.16 nM in test [1], 3.16 nM in test [4] and 3.3 nM in test [6]. For the same molecule, in [1], the off-rate constant (koff) turned out to be 0.00085 s⁻¹. Besides, the kon in test [1] is 271000 M⁻¹ s⁻¹. For the same molecule, the 50% effective concentration (EC50 (read off the curve)) was roughly 0.4 µg/mL in [2], roughly 1 µg/mL in test [5] and roughly 1 µg/mL in test [7]. Moreover, in test [3], the LoD chemiluminescence detection turned out to be 0.37 ng/mL. In test [3], the LoD colourimetric detection worked out at 20 ng/mL.

B4: 3aD3 scAb (scFv, not shown: small tags and cut ends)
scFv: QVQLQESGPSLVKPSQTLSLTCTVSGFSLTSNGVGWVRRAPGKVPEWVGDISSGGKVYGHPALKSRLSITRDTSKSQVSLSVSSVTSEDTAVYYCVRCRDGGVSYGYDSDYWGPGLLVTVSSEGKSSGASGESKVDDQAVVTQPSSVSKSLGQSVSITCSGSSSNVGYGDYVGWFQQVPGSAPKLLIYGVTERASGVPDRFSGSRSGNTATLTISSIQAEDEADYYCASYDDSSGGIFGSGTRLTVLG
notes: scAb
Regarding B4, in test [1], the Kd is 19.1 nM, the koff worked out at 0.0104 s⁻¹ and the on-rate constant (kon) was 544000 M⁻¹ s⁻¹. Also, in the test with tau fragment 1-49, the binding result is “binds”.

B5: E1E8 scAb (scFv, not shown: small tags and cut ends)
scFv: QVQLQESGPSLVKPSQTLSLTCTVSGFSLTDWGVAWVRQAPGKALEWLGTMRSGGTTDDNPALKSRLSITRDTSKSQVSLSLSSVTTEDMAMYYCARGYLSGVHYAWGRGLLVTVSSEGKSSGASGESKVDDQAVLTQPSSVSGSLGQSVSITCSGSSSNVGDGRYVSWFQQVPGSAPKLLIYDTTSRASGVPDRFSGSRSGNTATLIITSLQAEDEADYYCASIDSGNNLLFGSGTRLTVLG
notes: scAb
Take B5: in the test with dGAE (tau 297-391), binding was put at a Kd of 6.3 nM, the koff came to 0.0014 s⁻¹ and the kon was found to be 154000 M⁻¹ s⁻¹. Moreover, the binding result in test [8] is listed as “no binding (tested: 25 ug/ml)”. In the test with dGA (tau 297-390), the binding result is “no binding (tested: 25 ug/ml)”.

B6: 412E6 (scFv)
scAb: QVQLQESGPSLVKPSETLSLTCTVSGFSLTNYGVGWVRQAPGKALEWLGNIYSGGSTYYNPALKSRLSITRDTSKSQVSLSLNSVTLEDTAVYYCGRGGVGSVDVWGPGLLVTVSSEGKSSGASGESKVDDQAVLTQPPSVSGSPGQRVSITCSGGRNNIGRGTFVDWYQQLPGSGLKTVIYGTDRRPPGVPDRFSGSKTGNAATLTITSLQAEDEADYWCATYDYSNDMIILGSGTRLTVLG
B6: the “EC50 (read off the curve)” value in [2] is roughly 2 µg/mL; in [5], roughly 6 µg/mL; in [7] it was roughly 6 µg/mL.

B7: 412B9 (scFv)
scAb: QVQLQESGPSLVKPSQTLSLTCTVSGFSVISDSVAWVRQAPGKVPEWLGASGSSGNKYYNPALKSRLSITRDTSKSQVSLSLSSVTTEDTAVYYCARGIIAGVDVWGRGLLVSVSSEGKSSGASGESKVDDQAVLTQPSSVSGALGQRVSITCSGSSSNVGYGDYVGWYQQVPGSAPKLLIYGAASRASGVPDRFSGSRSGNTATLTISSLQAEDEADYYCASYDSSDGGVFGSGTRLTVLG
With B7, the “EC50 (read off the curve)” value in [2] is roughly 2 µg/mL.

B8: CA12 scAb (scFv, not shown: small tags and cut ends)
scFv: QVQLQGSGPSLVKPSQTLSLTCTVSGFSFDSYYVGWVRQAPGKALEWLGNIYSTGRAFYNPALKSRLSITRDTSKSQVSLSVSSVTIEDTALYYCVRGSYYHGGGNGMVDFFDYWSPGLLVTVSSEGKSSGASGESKVDDQVVRTQPSSVSGSLGQRVSITCSGSSSNVGYGNYVGWFQQVPGSAPKLLIYAATSRASGVPDRFSGSRSGNTATLTIDSLQAEDEADYYCSSYQRGNTGVFGSGTRLTVLG
notes: scAb
B8: the LoD with aggregated dGAE [9] came out at 2 ng/mL; with aggregated dGAE [11], 16 ng/mL. Moreover, the “EC50 (read off the curve)” value in test [10] is roughly 0.02 µg/mL.

B9: 3aB7 scAb (scFv, not shown: small tags and cut ends)
scFv: QVQLQESGPSLVKPSQTLSLTCTVSGFSLTSNGVGWVRQAPGKVPEWVGDKSSAGKTYGNPALKSRLSITRDTSKSQVSLSLSSVTTEDTAVYYCVRCRDGGVTYGYDVDYWGPGLLVTVSSEGKSSGASGESKVDDQAVLTQPSSVSKSLGQSVSITCSGSSSNVGYGDVVSWFQQFPGSAPKLLIFGTTTRASGVPDRFSGSRSGNAATLTINSLQAEDEADYYCASFDSDSGGIAGSGTRLTVLG
notes: scAb
In [1], B9 gave a dissociation constant (Kd) of 69 nM, a koff of 0.0143 s⁻¹ and a kon of 207000 M⁻¹ s⁻¹. Further, in the test with tau fragment 1-155, the “EC50 (read off the curve)” value is roughly 0.8 µg/mL.
